The chains are these.
B1: K1-69H5 scFv-Fc (JR8.144.3) (Fc fusion)
chain: EIVLTQSPGTLSLSPGERATLSCRASQSVSSSYLAWYQQKPGQAPRLLIYGASSRATGIPDRFSGSGSGTDFTLTISRLEPEDFAVYYCQQYSRAPGTFGQGTKVEIKAGGGGSGGGGSGGGGSQVQLVQSGAEVKKPGSSVKVSCKASGGTFSSYGIHWVRQAPGQGLEWMGGIIPILGTANYAQKFQGRVTITADESTSTAYMELSSLRSEDTAVYYCAVPFFDVWGQGTLVTVSS
notes: Purified scFv-Fc homodimer; also called JR8.144.3 K1-69H5; not shown: Fc fragment (human Fc domain)
B2: K1-69C7 scFv-Fc (JR8.153.1) (Fc fusion)
chain: DIQMTQSPSSLSASVGDRVTITCRASQDISNYLNWYQQKPGKAPKLLIYGASSLQSGVPSRFSGSGSGTDFTLTISSLQPEDFATYYCQQTYTIPLTFGQGTKVEIKAGGGGSGGGGSGGGGSQVQLVQSGAEVKKPGSSVKVSCKASGGTFTSYAINWVRQAPGQGLEWMGRIIPIIGRVDYAQKFQGRVTITADESTSTAYMELSSLRSEDTAVYYCARGFVGGFDVWGQGTLVTVSS
notes: Purified scFv-Fc homodimer; also called JR8.153.1 K1-69C7; not shown: Fc fragment (human Fc domain)
B3: K3-30B12 scFv-Fc (JR8.156.6) (Fc fusion)
chain: DIQMTQSPSSLSASVGDRVTITCRASQDISTYLNWYQQKPGKAPKLLIYDASSLQSGVPSRFSGSGSGTDFTLTISSLQPEDFATYYCQQSYSAPLTFGQGTKVEIKAGGGGSGGGGSGGGGSEVQLLESGGGLVQPGGSLRLSCAASGFTFSTYAMSWVRQAPGKGLEWVSTISGSGVRTYYADSVKGRFTISRDNSKNTLYLQMNSLRAEDTAVYYCARETYIYGPFDVWGQGTLVTVSS
notes: Purified scFv-Fc homodimer; also called JR8.156.6 K3-30B12; not shown: Fc fragment (human Fc domain)
B4: K3-15F7 scFv-Fc (JR8.144.4) (Fc fusion)
chain: DIQMTQSPSSLSASVGDRVTITCRASQDIRRYLNWYQQKPGKAPKLLIYAASSLQSGVPSRFSGSGSGTDFTLTISSLQPEDFATYYCQQAYSIPLTFGQGTKVEIKGGGGSGGGGSGGGGSEVQLVESGGGLVKPGGSLRLSCAASGFTFSNAWMSWVRQAPGKGLEWVGRIKSKTAGGTTDYAAPVKGRFTISRDDSKNTLYLQMNSLKTEDTAVYYCARDWWYLDFDYWGQGTLVTVSS
notes: Purified scFv-Fc homodimer; also called JR8.144.4 K3-15F7; not shown: Fc fragment (human Fc domain)

These results are taken from patent US20260193307A1 (ASKGENE PHARMA, published 2026).

One assay deals with T1, IL-2 (UniProt P60568 21-153). Put plainly: cell-based or functional assay.
T1 sequence (P60568 21-153 limits assumed): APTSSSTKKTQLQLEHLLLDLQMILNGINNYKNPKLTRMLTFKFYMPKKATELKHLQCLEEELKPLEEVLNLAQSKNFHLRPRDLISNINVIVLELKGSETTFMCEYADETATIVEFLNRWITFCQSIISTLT
B1: the “IC50, CTLL2 cell-based IL-2 activity inhibition assay (50 nM IL-2)” value turned out to be 11.3 nM.

On to B2, for which the “IC50, CTLL2 cell-based IL-2 activity inhibition assay (50 nM IL-2)” value worked out at 7 nM.

The next assay concerns the target T1, IL-2. Put plainly: ForteBio (BLI), purified scFv-Fc to IL-2. (Biolayer interferometry detects binding as a change in optical thickness at a sensor tip.)
As a reminder, the Kd is a measure of binding affinity in units of concentration. A lower Kd goes with higher affinity. For the molecule B3, binding was put at a Kd of 0.605 nM and the Response came out at 3.1.

In turn, B4 yielded a Kd of less than 0.001 nM and a Response of 3.

With B1, the Kd is less than 0.001 nM and the Response worked out at 3.

B2 showed a Kd of 0.117 nM and a Response of 3.5.
